Laboratory results: paper PMC1450329
Read-outs that look alike come from different tables or passages of the source.

Tests used:
Assay in all cases: fluorescence anisotropy
[1] = biological target: T1, MutS-E38A (Escherichia coli, UniProt P23909 1-853, E38A)
T1 sequence: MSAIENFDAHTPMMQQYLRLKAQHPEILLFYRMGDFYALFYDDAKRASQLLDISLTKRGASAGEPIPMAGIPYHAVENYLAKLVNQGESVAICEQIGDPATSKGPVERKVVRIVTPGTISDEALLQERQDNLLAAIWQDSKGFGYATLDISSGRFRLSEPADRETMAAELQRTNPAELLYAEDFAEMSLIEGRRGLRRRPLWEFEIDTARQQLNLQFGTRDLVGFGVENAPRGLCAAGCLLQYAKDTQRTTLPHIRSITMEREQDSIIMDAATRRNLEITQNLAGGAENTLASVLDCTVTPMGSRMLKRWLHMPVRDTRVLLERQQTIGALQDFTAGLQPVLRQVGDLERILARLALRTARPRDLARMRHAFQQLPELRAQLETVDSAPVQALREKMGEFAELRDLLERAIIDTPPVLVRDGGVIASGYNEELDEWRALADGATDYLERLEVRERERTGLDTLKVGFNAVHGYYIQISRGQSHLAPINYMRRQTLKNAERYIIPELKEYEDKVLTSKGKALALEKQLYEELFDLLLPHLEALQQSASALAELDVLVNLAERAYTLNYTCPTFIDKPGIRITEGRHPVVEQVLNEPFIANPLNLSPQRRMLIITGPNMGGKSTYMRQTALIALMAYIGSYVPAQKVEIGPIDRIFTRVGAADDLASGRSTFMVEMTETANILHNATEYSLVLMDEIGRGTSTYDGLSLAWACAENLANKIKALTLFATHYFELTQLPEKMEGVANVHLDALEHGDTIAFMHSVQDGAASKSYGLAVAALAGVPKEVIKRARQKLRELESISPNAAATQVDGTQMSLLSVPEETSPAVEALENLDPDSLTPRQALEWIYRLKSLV

[2] = biological target: T2, MutS wild-type (Escherichia coli, UniProt P23909 1-853)
T2 sequence: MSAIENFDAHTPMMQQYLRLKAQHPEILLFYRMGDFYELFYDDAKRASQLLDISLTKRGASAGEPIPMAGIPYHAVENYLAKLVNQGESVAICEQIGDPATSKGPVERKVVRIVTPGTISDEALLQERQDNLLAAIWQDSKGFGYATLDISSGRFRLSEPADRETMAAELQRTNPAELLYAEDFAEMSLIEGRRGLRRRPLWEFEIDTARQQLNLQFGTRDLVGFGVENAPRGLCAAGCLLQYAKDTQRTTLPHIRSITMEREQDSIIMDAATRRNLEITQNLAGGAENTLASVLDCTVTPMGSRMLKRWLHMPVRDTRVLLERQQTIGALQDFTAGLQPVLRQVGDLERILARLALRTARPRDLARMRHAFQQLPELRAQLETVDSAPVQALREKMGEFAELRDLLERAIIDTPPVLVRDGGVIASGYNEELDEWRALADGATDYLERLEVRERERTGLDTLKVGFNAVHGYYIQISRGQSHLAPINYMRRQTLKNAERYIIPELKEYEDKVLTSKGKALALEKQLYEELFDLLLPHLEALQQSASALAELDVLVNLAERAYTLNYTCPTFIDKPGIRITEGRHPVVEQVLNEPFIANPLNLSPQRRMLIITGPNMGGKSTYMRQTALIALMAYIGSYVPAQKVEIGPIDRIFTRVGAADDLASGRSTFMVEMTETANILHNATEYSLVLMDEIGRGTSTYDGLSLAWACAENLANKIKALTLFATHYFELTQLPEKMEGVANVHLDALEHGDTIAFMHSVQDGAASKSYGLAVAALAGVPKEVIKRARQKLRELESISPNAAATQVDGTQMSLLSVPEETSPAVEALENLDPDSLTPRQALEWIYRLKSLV

[3] = biological target: T2, MutS wild-type; remark: listed apart in the source

B1: G/T mismatch heteroduplex 30mer (dsDNA)
DNA 1: ACCTGTCTGGCAACACTGTCACCGTCGTAT
DNA 2: ATACGACGGTGACAGTGTTGCTAGACAGGT
[1]
  Kd: 160 ± 58 nM
[2]
  Kd: 100 ± 8 nM

B2: CP-GpG/CT cisplatinated mismatch 30mer (dsDNA)
DNA 1: ACCTGTCTGGCAACACTGTCACCGTCGTAT
DNA 2: ATACGACGGTGACAGTGTTGCTAGACAGGT
modifications: cisplatin 1,2-GpG intrastrand cross-link at G9-G10 of strand 1
[1]
  Kd: 200 ± 69 nM
[2]
  Kd: 360 ± 46 nM

B3: CP-GpG/CC cisplatinated homoduplex 30mer (dsDNA)
DNA 1: ACCTGTCTGGCAACACTGTCACCGTCGTAT
DNA 2: ATACGACGGTGACAGTGTTGCCAGACAGGT
modifications: cisplatin 1,2-GpG intrastrand cross-link at G9-G10 of strand 1
[3]
  Kd: 1340 ± 580 nM
[1]
  Kd: 600 ± 78 nM
[2]
  Kd: 1300 ± 65 nM

B4: G/C homoduplex 30mer (dsDNA)
DNA 1: ACCTGTCTGGCAACACTGTCACCGTCGTAT
DNA 2: ATACGACGGTGACAGTGTTGCCAGACAGGT
[3]
  Kd: 1080 ± 720 nM
[1]
  Kd: 610 ± 58 nM
